Test results reported in US20240158477A1 (BIODURO JIANGSU, published 2024).

What was measured:
Test in all cases: cell-based or functional assay
[1] = biological target: SARS-CoV-2 S protein of variant P.1
[2] = biological target: SARS-CoV-2 S protein of variant B1.1.7
[3] = biological target: SARS-CoV-2 S protein of variant B.1.525
[4] = biological target: SARS-CoV-2 S protein of variant B.1.351

B1: Fc tagged nanobody VHH60 (Fc fusion)
chain: EVQLVESGGGLVQPGGSLRLSCAASGRTFRVNLMGWFRQAPGKGRELVASINGFDDITYYPDSVEGRFTISRDNAKRMVYLQMNSLRAEDTAVYYCAAYDSDYDGRLFNYWGQGTQVTVSSGSGGGGSGGGGS
In the case of B1, the “IC50, pseudoviral entry assay (CaCO2 cells)” value (from here on “IC50, pseudoviral entry assay”) [1] is reported as 16.3 nM, the “IC50, pseudoviral entry assay” value [2] is reported as 31.8 nM and the “IC50, pseudoviral entry assay” value [3] is reported as 15 nM. For the same binder, the “IC50, pseudoviral entry assay” value [4] was 18.3 nM.
